The supplement of paper PMC10724198
± gives the standard deviation of the averaged measurements.

Experiments:
[1] = test system: Saccharomyces cerevisiae; assay: protein stability index of tFT-peptide fusion (C-terminal peptide) (PSI (0-1 scale)); higher = more stable (slower turnover)
Protocol: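 MPS profiling in S. cerevisiae of the tFT-X12 degron library: putative degron peptides plus stable controls, 12 aa, fused to the C-terminus of a sfGFP-mCherry timer. Cells are FACS-sorted into 8 mCherry/sfGFP bins and deep-sequenced. PSI runs from 0 (unstable) to 1 (stable). Backgrounds are wild type, das1Δ and doa10Δ at 30 °C, and wild type, das1Δ, cdc34-1 and cdc53-1 at 37 °C; 2-3 technical replicates each.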

[2] = test system: Saccharomyces cerevisiae; assay: as above; details: genetic background: wild type; temperature: 30 C
[3] = genetic background: cdc34-1, temperature: 37 C
[4] = genetic background: cdc53-1, temperature: 37 C
[5] = genetic background: das1 deletion, temperature: 30 C
[6] = genetic background: das1 deletion, temperature: 37 C
[7] = genetic background: doa10 deletion, temperature: 30 C
[8] = genetic background: wild type, temperature: 30 C
[9] = genetic background: wild type, temperature: 37 C
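Note: PSI is a weighted mean of sequencing reads over stability bins, variants kept only with over 10 reads, mCherry proximal and sfGFP distal, peptide attached via GGGS linker.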

Sequence	protein stability index [1, 3]	protein stability index [1, 4]	protein stability index [1, 5]	protein stability index [1, 6]	protein stability index [1, 7]	protein stability index [1, 8]	protein stability index [1, 9]	protein stability index [2]
LPLLLFYLPIIW	0.4647 ± 0.0038	0.479 ± 0.0079	0.401 ± 0.034	0.521 ± 0.0097	0.414 ± 0.0077	0.389 ± 0.034	0.4796 ± 0.0041	0.464 ± 0.03
LPPFLSSLPSSP	0.715 ± 0.027	0.769 ± 0.016	0.66 ± 0.017	0.7635 ± 0.0039	0.668 ± 0.031	0.663 ± 0.011	0.732 ± 0.013	0.704 ± 0.019
LPPSPPAPLSRL	0.906 ± 0.024	0.8918 ± 0.0015	0.81 ± 0.012	0.8616 ± 0.0061	0.804 ± 0.022	0.801 ± 0.019	0.8571 ± 0.005	0.804 ± 0.066
LQIKSFTSQRLA	0.509 ± 0.021	0.698 ± 0.0074	0.6421 ± 0.0063	0.72398 ± 0.0003	0.0758 ± 0.016	0.0902 ± 0.037	0.0965 ± 0.038	0.158 ± 0.021
LRFMLLSFLVIL	0.251 ± 0.021	0.207 ± 0.015	0.349 ± 0.034	0.429 ± 0.019	0.2402 ± 0.0023	0.176 ± 0.022	0.266 ± 0.01	0.234 ± 0.083
LRFVCALGYCVW	0.577 ± 0.042	0.645 ± 0.019	0.485 ± 0.027	0.6011 ± 0.0042	0.443 ± 0.015	0.461 ± 0.029	0.574 ± 0.0089	0.471 ± 0.0098
LRNVPCLVFFWV	0.5656 ± 0.0038	0.61 ± 0.025	0.439 ± 0.024	0.632 ± 0.011	0.334 ± 0.017	0.384 ± 0.03	0.631 ± 0.049	0.462 ± 0.048
LRSVLGWGLFLA	0.45 ± 0.033	0.494 ± 0.014	0.493 ± 0.027	0.621 ± 0.0097	0.236 ± 0.0088	0.208 ± 0.021	0.422 ± 0.0078	0.325 ± 0.018
LSCFCLFCLSFC	0.634 ± 0.053	0.678 ± 0.026	0.518 ± 0.036	0.663 ± 0.027	0.517 ± 0.039	0.496 ± 0.015	0.669 ± 0.0017	0.0626 ± 0.033
LSFLALLLFFRI	0.228 ± 0.035	0.22 ± 0.061	0.363 ± 0.04	0.44 ± 0.015	0.567 ± 0.017	0.372 ± 0.025	0.357 ± 0.019	0.4764 ± 0.0023
LSGIILGWSVSG	0.755 ± 0.047	0.76 ± 0.0077	0.6302 ± 0.0058	0.735 ± 0.047	0.6308 ± 0.005	0.645 ± 0.0062	0.7292 ± 0.003	0.676 ± 0.034
LSLVYFAALFSF	0.484 ± 0.042	0.529 ± 0.033	0.409 ± 0.019	0.53775 ± 0.00036	0.356 ± 0.025	0.377 ± 0.043	0.4858 ± 0.003	0.4709 ± 0.0037
LSTPPLLPTPPS	0.672 ± 0.029	0.7296 ± 0.0032	0.664 ± 0.012	0.7182 ± 0.0062	0.672 ± 0.029	0.669 ± 0.014	0.6988 ± 0.0048	0.7113 ± 0.0049
LSVMKLFVMVGP	0.442 ± 0.0094	0.493 ± 0.027	0.37 ± 0.026	0.5023 ± 0.0045	0.358 ± 0.0093	0.377 ± 0.029	0.479 ± 0.012	0.401 ± 0.039
LSVSLFPIRYVG	0.666 ± 0.027	0.76446 ± 1.3e-05	0.617 ± 0.019	0.7638 ± 0.0037	0.196 ± 0.0098	0.24 ± 0.02	0.453 ± 0.016	0.396 ± 0.025
LVVIYPLLSSPV	0.564 ± 0.0066	0.567 ± 0.019	0.43 ± 0.027	0.578 ± 0.0074	0.402 ± 0.014	0.43 ± 0.022	0.562 ± 0.0072	0.4643 ± 0.00088
LWFFVGFAVYGG	0.302 ± 0.0084	0.438 ± 0.018	0.346 ± 0.036	0.513 ± 0.019	0.306 ± 0.012	0.371 ± 0.0059	0.497 ± 0.058	0.455 ± 0.0066
LWFRGGYLFFVV	0.44378 ± 0.00022	0.444 ± 0.013	0.439 ± 0.025	0.499 ± 0.01	0.2 ± 0.013	0.185 ± 0.016	0.332 ± 0.0057	0.265 ± 0.043
LWVTRVYCLLVC	0.0444 ± 0.016	0.158 ± 0.03	0.168 ± 0.019	0.233 ± 0.019	0.0555 ± 0.02	0.0507 ± 0.015	0.0739 ± 0.015	0.0818 ± 0.0069
LYIQWVSRWSVQ	0.611 ± 0.029	0.664 ± 0.083	0.547 ± 0.035	0.669 ± 0.021	0.388 ± 0.011	0.415 ± 0.019	0.5818 ± 0.003	0.504 ± 0.025

Sequence	protein stability index [1, 3]	protein stability index [1, 4]	protein stability index [1, 5]	protein stability index [1, 6]	protein stability index [1, 7]	protein stability index [1, 8]	protein stability index [1, 9]	protein stability index [2]
LYLCLVSPVVVL	0.156 ± 0.011	0.172 ± 0.0061	0.226 ± 0.024	0.296 ± 0.0064	0.184 ± 0.011	0.204 ± 0.032	0.2571 ± 0.0014	0.296 ± 0.029
LYLGCVLFVLFR	0.197 ± 0.045	0.151 ± 0.024	0.216 ± 0.029	0.368 ± 0.0098	0.273 ± 0.0047	0.198 ± 0.024	0.312 ± 0.036	0.234 ± 0.054
LYSVLWFCFPLV	0.586 ± 0.039	0.5638 ± 0.0037	0.446 ± 0.025	0.577 ± 0.0076	0.442 ± 0.035	0.42 ± 0.024	0.55 ± 0.01	0.466 ± 0.028
LYVLNILSFVCV	0.1572 ± 0.0013	0.25 ± 0.0041	0.137 ± 0.013	0.251 ± 0.023	0.115 ± 0.0099	0.117 ± 0.017	0.207 ± 0.0027	0.1688 ± 0.00051
MALAVRVVKCGA	0.328 ± 0.016	0.376 ± 0.0062	0.275 ± 0.031	0.4361 ± 0.0027	0.221 ± 0.006	0.268 ± 0.034	0.397 ± 0.0054	0.384 ± 0.028
MCRMYELYVTSS	0.504 ± 0.046	0.568 ± 0.079	0.382 ± 0.034	0.588 ± 0.026	0.349 ± 0.025	0.374 ± 0.018	0.558 ± 0.016	0.467 ± 0.01
MIILGFILYFFW	0.4 ± 0.011	0.533 ± 0.03	0.332 ± 0.035	0.505 ± 0.018	0.352 ± 0.04	0.347 ± 0.034	0.444 ± 0.018	0.422 ± 0.033
NAPSAIQKNKKC	0.696 ± 0.016	0.6886 ± 0.0037	0.649 ± 0.036	0.71782 ± 0.00039	0.211 ± 0.016	0.281 ± 0.037	0.515 ± 0.08	0.433 ± 0.081
NDSSWEVSLMVG	0.693 ± 0.019	0.763 ± 0.021	0.616 ± 0.024	0.748 ± 0.0098	0.614 ± 0.041	0.62 ± 0.018	0.736 ± 0.028	0.363 ± 0.076
NECLSSKWLRIC	0.399 ± 0.013	0.661 ± 0.032	0.631 ± 0.029	0.726 ± 0.025	0.0791 ± 0.032	0.111 ± 0.039	0.147 ± 0.035	0.185 ± 0.0041
NFKELMEKSKYR	0.704 ± 0.02	0.752 ± 0.029	0.677 ± 0.019	0.763 ± 0.028	0.677 ± 0.061	0.665 ± 0.027	0.718 ± 0.012	0.719 ± 0.018
NLTAIIYTLVVD	0.2313 ± 0.0018	0.466 ± 0.23	0.218 ± 0.032	0.444 ± 0.018	0.197 ± 0.016	0.225 ± 0.028	0.3944 ± 0.00021	0.31 ± 0.015
NQIIRLIVGLLC	0.55 ± 0.039	0.601 ± 0.017	0.486 ± 0.017	0.5867 ± 0.0055	0.193 ± 0.014	0.224 ± 0.011	0.355 ± 0.02	0.291 ± 0.016
PCLLRYLVHPFP	0.687 ± 0.026	0.765 ± 0.021	0.648 ± 0.014	0.7439 ± 0.0017	0.65 ± 0.013	0.667 ± 0.0086	0.7159 ± 0.0025	0.75445 ± 0.00044
PCPAPRPPSPSA	0.664 ± 0.078	0.721 ± 0.05	0.653 ± 0.0096	0.715 ± 0.0076	0.668 ± 0.031	0.682 ± 0.023	0.694 ± 0.014	0.435 ± 0.03
PDCRPPLVRCLL	0.9585 ± 0.0082	0.902 ± 0.071	0.827 ± 0.028	0.9164 ± 0.0047	0.8334 ± 0.0043	0.822 ± 0.035	0.936 ± 0.019	0.796 ± 0.03
PFALTPPPSPRS	0.745 ± 0.011		0.384 ± 0.024	0.583 ± 0.0083	0.356 ± 0.024	0.366 ± 0.0092	0.52 ± 0.046	0.426 ± 0.043
PFFCFLLFCFSL	0.477 ± 0.032	0.498 ± 0.0033	0.439 ± 0.033	0.5465 ± 0.00098	0.459 ± 0.0093	0.419 ± 0.027	0.5292 ± 0.0024	0.455 ± 0.037
PFFLLAGITVAC	0.0507 ± 0.023	0.0625 ± 0.026	0.177 ± 0.031	0.203 ± 0.0027	0.139 ± 0.0038	0.15 ± 0.025	0.16 ± 0.0058	0.273 ± 0.016
